The text below walks through data of the supplement of paper PMC10126150.

The subject of the data set is ATP. The data set can be described thus: switch fluorescence ratio, 500 uM ATP over buffer (Cy3 cluster intensity, sum of 5 cycles each) (fold (ratio)); higher = stronger signal-on switching upon ATP binding; sequences stand for … in TCGTCGGCAGCGTCAGATGTGTATAAGAGACAGTTTTTTTTTTTTTTTTTTTTTTTTT…TC. The settings on record: aptamer strand: ATP DNA aptamer (quencher-CACCTGGGGGAGTATTGCGGAGGAAGG + anchor), 100 nM annealed; ATP concentration: 500 uM. A digest of the protocol:
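Cy3-labelled switching-strand clusters on a modified Illumina MiSeq flow-cell were annealed to 100 nM quencher-labelled ATP aptamer and imaged first in selection buffer, then after 15 min with 500 uM ATP at 22 °C. NaOH stripping and re-annealing separated each of five buffer/ATP cycles, and clusters outside 100-1000 RFU were excluded. The fluorescence ratio sums target-cycle Cy3 intensity over buffer-cycle Cy3 intensity per cluster and averages it per switch-domain sequence.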

± gives the standard deviation of the averaged measurements.
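Also: ATP exposure 15 min at 22 °C before imaging.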

For TACTGGGGCG, the switch fluorescence ratio is 0.997 ± 0.082.

For the sequence TACTGGGGTA, the switch fluorescence ratio is 1.02 ± 0.028.

As for TACTGGTCCA, the switch fluorescence ratio is 1.051 ± 0.0087.

TACTGGTTCT: the switch fluorescence ratio worked out at 0.984 ± 0.064.

For the sequence TACTGTGTTA, the switch fluorescence ratio came to 0.979 ± 0.026.

TACTTAAGTT: the switch fluorescence ratio was 1.01 ± 0.019.

For TACTTAGGGA, the switch fluorescence ratio came out at 1.031 ± 0.0085.

As for TACTTATGTG, the switch fluorescence ratio was 1.01 ± 0.02.

For the sequence TACTTGAGGC, the switch fluorescence ratio worked out at 1.11 ± 0.21.

As to TACTTGGGTC, the switch fluorescence ratio worked out at 1.06 ± 0.03.

As for TACTTGTCGG, the switch fluorescence ratio was 0.985 ± 0.025.

TACTTGTTAT: the switch fluorescence ratio was 0.989 ± 0.034.

Consider TACTTTAGGT, for which the switch fluorescence ratio stood at 1.05 ± 0.019.

As for TACTTTATTT, the switch fluorescence ratio was 1.16 ± 0.21.

Turning to TACTTTCCCG, the switch fluorescence ratio amounted to 1.29 ± 0.13.

On to TACTTTGCG, for which the switch fluorescence ratio is 1.01 ± 0.017.

Take TACTTTGCTG: the switch fluorescence ratio was 1.02 ± 0.066.

Take TACTTTTCAA: the switch fluorescence ratio turned out to be 1.01 ± 0.011.

Take TACTTTTGAA: the switch fluorescence ratio is 0.977 ± 0.022.

For the sequence TACTTTTGCA, the switch fluorescence ratio came out at 0.985 ± 0.025.

As to TACTTTTTTT, the switch fluorescence ratio is 1.01 ± 0.037.

In the case of TAGAAAGCCT, the switch fluorescence ratio came to 1.06 ± 0.045.

For the sequence TAGAAAGTGT, the switch fluorescence ratio came out at 1.02 ± 0.019.

TAGAAATTGT: the switch fluorescence ratio came to 0.997 ± 0.039.

Consider TAGAAATTTG, for which the switch fluorescence ratio stood at 0.998 ± 0.03.

Consider TAGAACATGG, for which the switch fluorescence ratio was determined as 0.964 ± 0.061.

In the case of TAGAAGGGAT, the switch fluorescence ratio turned out to be 0.987 ± 0.016.

Regarding TAGAAGGGGA, the switch fluorescence ratio came out at 0.994 ± 0.044.

For TAGAAGTCTG, the switch fluorescence ratio amounted to 1.06 ± 0.012.

On to TAGAATCGTT, for which the switch fluorescence ratio worked out at 0.97 ± 0.05.

On to TAGAATGGAA, for which the switch fluorescence ratio is 1.02 ± 0.012.

As for TAGAATGTGT, the switch fluorescence ratio was 1.027 ± 0.0043.

Take TAGACTTTAG: the switch fluorescence ratio is 1.0314 ± 0.0007.

For TAGACTTTAT, the switch fluorescence ratio amounted to 1.02 ± 0.029.

Take TAGAGAAATT: the switch fluorescence ratio was 0.976 ± 0.023.

Consider TAGAGACTAA, for which the switch fluorescence ratio came out at 0.979 ± 0.029.

As to TAGAGCGGGG, the switch fluorescence ratio came out at 0.99 ± 0.02.

Take TAGAGGAGTG: the switch fluorescence ratio is 0.9599 ± 0.0086.

For TAGAGGCTAA, the switch fluorescence ratio turned out to be 0.977 ± 0.013.

Take TAGAGGGCCA: the switch fluorescence ratio came to 1.01 ± 0.044.

Turning to TAGAGGGGGC, the switch fluorescence ratio was determined as 0.987 ± 0.025.

For the sequence TAGAGTAGAT, the switch fluorescence ratio stood at 1.01 ± 0.02.

As to TAGATAAACT, the switch fluorescence ratio is 0.9969 ± 0.0039.

For the sequence TAGATAGAAT, the switch fluorescence ratio was found to be 1 ± 0.045.

As for TAGATAGCTT, the switch fluorescence ratio turned out to be 1.0112 ± 0.001.

For TAGATATGGT, the switch fluorescence ratio was determined as 0.989 ± 0.021.

On to TAGATCATGT, for which the switch fluorescence ratio is 1.016 ± 0.0026.

Regarding TAGATGAGAG, the switch fluorescence ratio was determined as 0.969 ± 0.012.

As for TAGATGATGT, the switch fluorescence ratio was 1.004 ± 0.01.

Regarding TAGATGGGGT, the switch fluorescence ratio is 1.01 ± 0.031.

For TAGATGGGTC, the switch fluorescence ratio stood at 1.01 ± 0.013.

Take TAGATGGTAG: the switch fluorescence ratio amounted to 0.973 ± 0.016.

In the case of TAGATGGTTT, the switch fluorescence ratio turned out to be 0.97 ± 0.036.

As to TAGATGTATT, the switch fluorescence ratio is 0.974 ± 0.013.

On to TAGATTCAGG, for which the switch fluorescence ratio was 1.004 ± 0.0054.

TAGATTGGCG: the switch fluorescence ratio worked out at 0.981 ± 0.043.

On to TAGATTTCGT, for which the switch fluorescence ratio is 0.9797 ± 0.0052.

On to TAGCAAAAAG, for which the switch fluorescence ratio worked out at 1.02 ± 0.031.

Turning to TAGCAAAAGG, the switch fluorescence ratio is 1.03 ± 0.015.

Regarding TAGCAATGTT, the switch fluorescence ratio was 1.64 ± 0.52.

Regarding TAGCACTATC, the switch fluorescence ratio stood at 1.35 ± 0.076.

Regarding TAGCAGAGGG, the switch fluorescence ratio turned out to be 1.01 ± 0.023.

As to TAGCAGTATT, the switch fluorescence ratio turned out to be 1.07 ± 0.065.

Consider TAGCATCTGG, for which the switch fluorescence ratio came out at 0.98 ± 0.039.

TAGCATCTTT: the switch fluorescence ratio is 0.98 ± 0.067.

For TAGCATGTAC, the switch fluorescence ratio amounted to 5.22 ± 0.65.

Take TAGCATTGTG: the switch fluorescence ratio is 1.02 ± 0.022.

TAGCCAGCTC: the switch fluorescence ratio is 0.996 ± 0.034.

Regarding TAGCCGCTTT, the switch fluorescence ratio amounted to 1.065 ± 0.0087.

TAGCGAAACT: the switch fluorescence ratio is 1.14 ± 0.032.

Take TAGCGATGCG: the switch fluorescence ratio came out at 1.031 ± 0.0042.

TAGCGCAGGC: the switch fluorescence ratio amounted to 0.996 ± 0.025.

Take TAGCGGGCCG: the switch fluorescence ratio worked out at 1.01 ± 0.039.

In the case of TAGCGGGGCA, the switch fluorescence ratio is 0.996 ± 0.046.

Take TAGCGGGTAC: the switch fluorescence ratio worked out at 1.28 ± 0.087.

Turning to TAGCGGGTCA, the switch fluorescence ratio is 0.966 ± 0.012.

For the sequence TAGCGGTTGT, the switch fluorescence ratio was found to be 0.999 ± 0.021.

As to TAGCGTGTAG, the switch fluorescence ratio came out at 1.02 ± 0.022.

For TAGCGTTAGG, the switch fluorescence ratio turned out to be 1.029 ± 0.0049.

TAGCGTTTTT: the switch fluorescence ratio was 0.97 ± 0.018.

Take TAGCTCGTTT: the switch fluorescence ratio came to 0.995 ± 0.038.

For the sequence TAGCTGGGGC, the switch fluorescence ratio stood at 1.02 ± 0.037.

Regarding TAGCTGTAAT, the switch fluorescence ratio amounted to 1.02 ± 0.046.

As for TAGCTGTCAC, the switch fluorescence ratio turned out to be 1.04 ± 0.04.

With TAGCTGTTGT, the switch fluorescence ratio was determined as 0.993 ± 0.027.

In the case of TAGCTTTTTT, the switch fluorescence ratio was 1.002 ± 0.0045.

For TAGGAAAAAG, the switch fluorescence ratio was found to be 0.975 ± 0.013.

For TAGGAATGGG, the switch fluorescence ratio came out at 0.989 ± 0.034.

As to TAGGACGCGG, the switch fluorescence ratio was 1.04 ± 0.052.

For TAGGACTCAT, the switch fluorescence ratio was determined as 1.009 ± 0.0082.

Regarding TAGGAGCAGG, the switch fluorescence ratio came out at 1.09 ± 0.021.

As to TAGGAGGCTA, the switch fluorescence ratio amounted to 0.976 ± 0.035.

Regarding TAGGAGGTAT, the switch fluorescence ratio is 1.01 ± 0.048.

Take TAGGAGGTTT: the switch fluorescence ratio amounted to 1.067 ± 0.0013.

In the case of TAGGAGTAAC, the switch fluorescence ratio stood at 0.9812 ± 0.0037.

Regarding TAGGAGTTAT, the switch fluorescence ratio was 1.01 ± 0.04.

For the sequence TAGGATGCAG, the switch fluorescence ratio was 0.957 ± 0.042.

For TAGGATGGCT, the switch fluorescence ratio stood at 0.959 ± 0.072.

For the sequence TAGGATGGGT, the switch fluorescence ratio worked out at 0.99 ± 0.017.

On to TAGGATGGTT, for which the switch fluorescence ratio was 0.984 ± 0.013.

For the sequence TAGGATTCTC, the switch fluorescence ratio stood at 0.979 ± 0.023.

Consider TAGGATTGGC, for which the switch fluorescence ratio was 1.04 ± 0.018.

TAGGCCTGGG: the switch fluorescence ratio stood at 1 ± 0.0033.

On to TAGGCGAGTT, for which the switch fluorescence ratio came out at 0.98 ± 0.0021.

Consider TAGGCGGAGC, for which the switch fluorescence ratio amounted to 1.033 ± 0.0063.

Take TAGGCGGATA: the switch fluorescence ratio is 1.008 ± 0.0023.

On to TAGGCGGGTG, for which the switch fluorescence ratio is 1.03 ± 0.023.

TAGGCGTACG: the switch fluorescence ratio was determined as 1.08 ± 0.006.

As for TAGGCTAGGT, the switch fluorescence ratio came out at 1.017 ± 0.0047.

For TAGGCTGAGG, the switch fluorescence ratio was 1.002 ± 0.0063.

TAGGCTGTAC: the switch fluorescence ratio stood at 2.84 ± 1.6.

With TAGGCTTAGC, the switch fluorescence ratio came out at 0.9671 ± 0.0069.

For TAGGCTTTTT, the switch fluorescence ratio stood at 0.9925 ± 0.0075.

For the sequence TAGGGAAAAC, the switch fluorescence ratio is 1.05 ± 0.12.

On to TAGGGAAATT, for which the switch fluorescence ratio was 1.04 ± 0.021.

TAGGGACGTT: the switch fluorescence ratio was determined as 0.988 ± 0.013.

With TAGGGAGGGA, the switch fluorescence ratio is 0.9801 ± 0.0069.

TAGGGAGTCA: the switch fluorescence ratio stood at 0.971 ± 0.019.

Regarding TAGGGATAGT, the switch fluorescence ratio is 0.9986 ± 0.0052.

Consider TAGGGATATA, for which the switch fluorescence ratio was found to be 0.985 ± 0.035.
